From publication PMC7760575, “TORC2-Dependent Ypk1-Mediated Phosphorylation of Lam2/Ltc4 Disrupts Its Association with the β-Propeller Protein Laf1 at Endoplasmic Reticulum-Plasma Membrane Contact Sites in the Yeast Saccharomyces cerevisiae” (Biomolecules, 2020)

T1: GST-Dgr2 (S. cerevisiae, UniProt P32330 1-852)
T1 construct: Dgr2/Ykl121w, S. cerevisiae, WD40 repeat protein, paralog of Laf1; plasmid described only as pGEX4T-1 Dgr2, no limits stated; Probably the whole open reading frame (surmised); also called Ykl121w; pFR404; source: E. coli BL21(DE3), purified (glutathione beads); not shown: GST, N-terminal, kept
T1 sequence (looked up): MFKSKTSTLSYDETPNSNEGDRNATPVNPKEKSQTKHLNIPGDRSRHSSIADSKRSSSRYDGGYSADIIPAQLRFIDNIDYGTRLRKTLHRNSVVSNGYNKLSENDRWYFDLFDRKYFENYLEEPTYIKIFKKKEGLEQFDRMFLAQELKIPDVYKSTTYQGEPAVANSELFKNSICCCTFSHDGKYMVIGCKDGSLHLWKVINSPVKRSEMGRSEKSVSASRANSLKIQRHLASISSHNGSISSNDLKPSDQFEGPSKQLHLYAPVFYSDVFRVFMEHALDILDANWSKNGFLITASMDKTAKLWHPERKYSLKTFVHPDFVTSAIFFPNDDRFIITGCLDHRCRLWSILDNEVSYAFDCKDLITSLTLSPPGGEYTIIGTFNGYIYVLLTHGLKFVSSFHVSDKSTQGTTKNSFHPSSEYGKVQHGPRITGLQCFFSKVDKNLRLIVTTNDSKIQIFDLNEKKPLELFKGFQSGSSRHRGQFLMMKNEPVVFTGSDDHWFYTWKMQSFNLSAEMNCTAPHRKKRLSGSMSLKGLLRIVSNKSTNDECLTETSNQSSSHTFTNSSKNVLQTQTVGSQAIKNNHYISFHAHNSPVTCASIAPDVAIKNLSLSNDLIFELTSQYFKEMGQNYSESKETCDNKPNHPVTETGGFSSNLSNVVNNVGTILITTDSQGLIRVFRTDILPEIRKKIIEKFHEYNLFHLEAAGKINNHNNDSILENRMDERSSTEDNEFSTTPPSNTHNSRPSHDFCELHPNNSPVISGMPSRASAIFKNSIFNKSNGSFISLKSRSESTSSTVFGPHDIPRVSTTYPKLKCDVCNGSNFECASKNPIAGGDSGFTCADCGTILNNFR

T2: GST-Laf1 (S. cerevisiae, UniProt Q03177 1-834)
T2 construct: Laf1/Ymr102c, S. cerevisiae, WD40 repeat protein; plasmid described only as pGEX4T-1 Laf1, no limits stated; Probably the whole open reading frame (surmised); also called Ymr102c; Lam2/Ltc4-Associated Factor 1; source: E. coli BL21(DE3), purified (glutathione beads); not shown: GST, N-terminal, kept
T2 sequence (looked up): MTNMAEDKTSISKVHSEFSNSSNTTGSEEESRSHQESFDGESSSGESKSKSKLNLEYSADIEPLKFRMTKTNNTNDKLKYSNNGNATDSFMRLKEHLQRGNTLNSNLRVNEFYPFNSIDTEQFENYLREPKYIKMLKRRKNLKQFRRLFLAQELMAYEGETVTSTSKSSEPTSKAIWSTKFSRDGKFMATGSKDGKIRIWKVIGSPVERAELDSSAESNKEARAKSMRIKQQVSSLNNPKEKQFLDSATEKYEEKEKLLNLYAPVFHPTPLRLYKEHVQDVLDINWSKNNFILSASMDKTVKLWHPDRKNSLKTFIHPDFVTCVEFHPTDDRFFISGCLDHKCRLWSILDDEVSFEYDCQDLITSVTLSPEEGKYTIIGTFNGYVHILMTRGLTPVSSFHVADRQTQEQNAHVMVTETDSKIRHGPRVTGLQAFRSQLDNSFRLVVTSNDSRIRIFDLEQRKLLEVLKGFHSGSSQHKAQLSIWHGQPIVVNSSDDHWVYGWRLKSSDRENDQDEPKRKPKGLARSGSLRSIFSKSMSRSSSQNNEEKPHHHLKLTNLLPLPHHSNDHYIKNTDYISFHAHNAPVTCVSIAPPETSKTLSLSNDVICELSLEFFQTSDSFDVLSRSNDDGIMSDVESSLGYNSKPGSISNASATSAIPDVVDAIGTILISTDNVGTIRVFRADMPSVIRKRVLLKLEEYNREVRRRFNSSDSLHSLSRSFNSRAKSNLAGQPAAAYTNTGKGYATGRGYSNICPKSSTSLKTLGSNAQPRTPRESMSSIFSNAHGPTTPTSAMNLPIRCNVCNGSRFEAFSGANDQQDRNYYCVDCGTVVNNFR


Legend:
GST-Dgr2 = biological target: T1, GST-Dgr2; assay: pull-down; GST fusion (bait) and His6-tagged Lam fragment incubated 1 h at 4 °C, complexes on glutathione-agarose beads; binding buffer 81 mM NaCl, 4.5 mM KCl, 1.35 mM MgCl2, 0.09% Triton X-100, 0.1 mg/mL BSA, 20 mM HEPES pH 7.5; four washes; immunoblot (anti-His, anti-GST); conditions: both partners purified
GST-Laf1 = biological target: T2, GST-Laf1; assay: as above; conditions: both partners purified

Row | Binder | binding result (GST-Dgr2) | binding result (GST-Laf1)
1 | Lam2(482–1259)-(His)6 (domain or fragment, S. cerevisiae, UniProt Q06681 482-1259, looked up, also called Lam2/Ltc4/Ysp2 fragment; pFR391; source: E. coli BL21(DE3), purified (glutathione beads, cut off with TEV protease); not shown: GST, N-terminal, cleaved; His6, C-terminal, kept) LGPKELNTSYRNSTYIDMARFENSQSNLSSHRARSKTLPANKALENAVGDEGNSKRNSRYSSYSNDMAFDDADERKFRSMSKKFLNRRSFSPSNLGNKVIPGINLRNSFNKNRNSSSDFFSTNQGQQMPRTSTAGSGNIHAIMGLDSGNDDFKLEGIEYASEKKNSEFHTLFKDCDINPNEKLIVDHSCALSRDILLQGRMYISDAHIGFFSNILGWVSTVFIPFKEIVQIEKKTTAGIFPNGIVIDTLHTKYIFASFMSRDATFDLITDVWNQIILGKKYRNGFGNNDDGTISDSSSAFFDDSDDNDDDGDLDDDDPDINSTDMTSSDDIDADVFNESNDLGKNQKSTNYLLGPNKHSPTTADFKPSNNDHLVIEANINAPLGKVVNLLYGEDVSYYERILKAQKNFEISPIPNNFLTKKIRDYAYTKPLSGSIGPSKTKCLITDTLEHYDLEDYVKVLSITKNPDVPSGNIFSVKTVFLFSWDKNNSTKLTVYNSVDWTGKSWIKSMIEKGTFDGVADTTKIMISEIKKILSDEDSNINSKHQASNNESEEEIINLPTIGPPVHDPTEPDFQKGKDDTVIDEKINIPVPLGTVFSLLYGDDTSYIKKIIENQNNFNVCDIPKFVNNAREITYTKKLNNSFGPKQTKCIVTETIEHMDLNSFFMVKQIVRSPDVPYGSSFSVHTRFFYSWGDHNTTNMKVVTNVVWTGKSMLKGTIEKGSIDGQRSSTKQLVDDLKKIISNASSTKKKSRRRGKTVNKRKSSPSTIKNEKNEENFED | binds | binds
2 | Lam2(482-1259; T518A L519A T1237A V1238A)-(His)6 (domain or fragment, S. cerevisiae, UniProt Q06681 482-1259, looked up, also called pFR411; source: E. coli BL21(DE3), purified (glutathione beads, cut off with PreScission protease); not shown: GST, N-terminal, cleaved; His6, C-terminal, kept) LGPKELNTSYRNSTYIDMARFENSQSNLSSHRARSKAAPANKALENAVGDEGNSKRNSRYSSYSNDMAFDDADERKFRSMSKKFLNRRSFSPSNLGNKVIPGINLRNSFNKNRNSSSDFFSTNQGQQMPRTSTAGSGNIHAIMGLDSGNDDFKLEGIEYASEKKNSEFHTLFKDCDINPNEKLIVDHSCALSRDILLQGRMYISDAHIGFFSNILGWVSTVFIPFKEIVQIEKKTTAGIFPNGIVIDTLHTKYIFASFMSRDATFDLITDVWNQIILGKKYRNGFGNNDDGTISDSSSAFFDDSDDNDDDGDLDDDDPDINSTDMTSSDDIDADVFNESNDLGKNQKSTNYLLGPNKHSPTTADFKPSNNDHLVIEANINAPLGKVVNLLYGEDVSYYERILKAQKNFEISPIPNNFLTKKIRDYAYTKPLSGSIGPSKTKCLITDTLEHYDLEDYVKVLSITKNPDVPSGNIFSVKTVFLFSWDKNNSTKLTVYNSVDWTGKSWIKSMIEKGTFDGVADTTKIMISEIKKILSDEDSNINSKHQASNNESEEEIINLPTIGPPVHDPTEPDFQKGKDDTVIDEKINIPVPLGTVFSLLYGDDTSYIKKIIENQNNFNVCDIPKFVNNAREITYTKKLNNSFGPKQTKCIVTETIEHMDLNSFFMVKQIVRSPDVPYGSSFSVHTRFFYSWGDHNTTNMKVVTNVVWTGKSMLKGTIEKGSIDGQRSSTKQLVDDLKKIISNASSTKKKSRRRGKAANKRKSSPSTIKNEKNEENFED |  | binds
3 | Lam4(371–1177)-(His)6 (domain or fragment, S. cerevisiae, UniProt P38800 371-1177, looked up, also called Lam4/Ltc3 fragment; pFR407; source: E. coli BL21(DE3), purified (glutathione beads, cut off with TEV protease); not shown: GST, N-terminal, cleaved; His6, C-terminal, kept) SNLERKTVPSKWSVVSSSTTDGVKPRRRAKSMISAMADKQNTSSDVLQDCKKRLSFNSSNGLTNNDPEYEDREPREMSKKFLNRRSFSPGSISMGMKVLPSTALKYSLNKVKNSTDIASTIIPRPSMSNGRPSSGLRRSSSKSFSSTPVNIIEPSEENGRQSSIRIKGVEYASEKKDAEFHAIFKDSGVSPNERLILDHSCALSRDILLQGRMYISDQHIGFYSNILGWVSTVFIPFKTIVQIEKRATAGIFPNGIVIDTLHTKYTFASFTSRDATYDLITEVWNQIILGKRFRSNSNNTNSSSNSISDDENDDYDDDYDDYGDDDDDLYDNSNNISDSTDMTSSVSIGKPEDLPMPLQTDTPYGTGIPPLGPKIHSPTETVYKPAPNEKLVNESTIHASLGRVVNILFGKDVSYIMAILKAQKNSDISPIPVLVDSPTVSEGKKRDYSYVKTTPGAIGPGKTKCMITETIQHFNLEEYVQVLQTTKTPDVPSGNSFYVRTVYLLSWANNNETKLKLYVSVEWTGKSLIKSPIEKGTFDGVTDATKILVEELGNILTRSATKRKRSSKENTVTVSTLPKMEPSSHAPTEPDIQKDKDDSIIRENENIPAPLGTVVQLLFGSNTEYMQKVITRDKNNVNVETIPKFTPSLVEGGSRHYEYTKKLNNSIGPKQTKCLLTESIEHMDINNYVLVTQTTKTPDVPSGSNFAVESKIFLFWGQHDTTNMTVITKINWTSKSFLKGAIEKGSVEGQKVSVDYMLSELRDIISRAKSKKPVKKVMKSHDKHRPFHSKVEQKSSESRKSDDNKDI | binds | binds

Results, then the binder that gave them:

Row | binding result (GST-Dgr2) | binding result (GST-Laf1) | Binder
4 |  | binds | Lam2(849–1259)-(His)6 (domain or fragment, S. cerevisiae, UniProt Q06681 849-1259, looked up, tandem StARkin domains, PH domain removed; also called pFR409; source: E. coli BL21(DE3), purified (glutathione beads, cut off with TEV protease); not shown: GST, N-terminal, cleaved; His6, C-terminal, kept) SNNDHLVIEANINAPLGKVVNLLYGEDVSYYERILKAQKNFEISPIPNNFLTKKIRDYAYTKPLSGSIGPSKTKCLITDTLEHYDLEDYVKVLSITKNPDVPSGNIFSVKTVFLFSWDKNNSTKLTVYNSVDWTGKSWIKSMIEKGTFDGVADTTKIMISEIKKILSDEDSNINSKHQASNNESEEEIINLPTIGPPVHDPTEPDFQKGKDDTVIDEKINIPVPLGTVFSLLYGDDTSYIKKIIENQNNFNVCDIPKFVNNAREITYTKKLNNSFGPKQTKCIVTETIEHMDLNSFFMVKQIVRSPDVPYGSSFSVHTRFFYSWGDHNTTNMKVVTNVVWTGKSMLKGTIEKGSIDGQRSSTKQLVDDLKKIISNASSTKKKSRRRGKTVNKRKSSPSTIKNEKNEENFED
5 |  | binds | Lam2(482–1259; ∆644–760)-(His)6 (domain or fragment, S. cerevisiae, UniProt Q06681 482-1259, looked up, also called ∆PH; source: E. coli BL21(DE3), purified (glutathione beads, cut off with TEV protease); not shown: GST, N-terminal, cleaved; His6, C-terminal, kept) LGPKELNTSYRNSTYIDMARFENSQSNLSSHRARSKTLPANKALENAVGDEGNSKRNSRYSSYSNDMAFDDADERKFRSMSKKFLNRRSFSPSNLGNKVIPGINLRNSFNKNRNSSSDFFSTNQGQQMPRTSTAGSGNIHAIMGLDSGNDDFKLEGIEYASEKYRNGFGNNDDGTISDSSSAFFDDSDDNDDDGDLDDDDPDINSTDMTSSDDIDADVFNESNDLGKNQKSTNYLLGPNKHSPTTADFKPSNNDHLVIEANINAPLGKVVNLLYGEDVSYYERILKAQKNFEISPIPNNFLTKKIRDYAYTKPLSGSIGPSKTKCLITDTLEHYDLEDYVKVLSITKNPDVPSGNIFSVKTVFLFSWDKNNSTKLTVYNSVDWTGKSWIKSMIEKGTFDGVADTTKIMISEIKKILSDEDSNINSKHQASNNESEEEIINLPTIGPPVHDPTEPDFQKGKDDTVIDEKINIPVPLGTVFSLLYGDDTSYIKKIIENQNNFNVCDIPKFVNNAREITYTKKLNNSFGPKQTKCIVTETIEHMDLNSFFMVKQIVRSPDVPYGSSFSVHTRFFYSWGDHNTTNMKVVTNVVWTGKSMLKGTIEKGSIDGQRSSTKQLVDDLKKIISNASSTKKKSRRRGKTVNKRKSSPSTIKNEKNEENFED
